The numbers were not newly measured in publication PMC5996525, which cites them from elsewhere.

In this data set the target is CTLA-4 (Homo sapiens) (UniProt P16410). Put plainly: SPR.
UniProt P16410, sequence (P16410 36-161): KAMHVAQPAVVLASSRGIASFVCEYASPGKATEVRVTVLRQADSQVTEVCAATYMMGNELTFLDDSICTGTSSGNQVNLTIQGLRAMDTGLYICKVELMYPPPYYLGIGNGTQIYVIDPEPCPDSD

For tremelimumab, the dissociation constant Kd (usually a measure of binding affinity in units of concentration) is 5.89 nM.
